B1: BMS-986351 (antibody, V domains shown)
VH: QVQLVQSGAEVKKPGASVKVSCKASGYTFRGYGISWVRQAPGQGLEWMGWISAYGGETNYAQKLQGRVTMTTDTSTSTAYMELRSLRSDDTAVYYCAREAGSSWYDFDLWGRGTLVTVSS
VL: DIQMTQSPSSVSASVGDRVTITCRASQGISSWLAWYQQKPGKAPKLLIYAASNLQSGVPSRFSGSGSGTDFTLTISSLQPEDFATYYCQQGASFPITFGGGTKVEIK
B2: BMS-986351-Fab (Fab, V domains shown)
VH: B1 VH
VL: B1 VL

What was measured:
[1] = target: FcγR3A (CD16aV158) (human); assay: FRET or BRET; time-resolved FRET (Cisbio); FcγRs expressed on HEK293 cells (Tb donor cells); IgG-d2 acceptor conjugate displaced by the test antibodies; EC50 by the manufacturer's protocol
FcγR3A (CD16aV158) (human), sequence (P08637 17-254 F176V): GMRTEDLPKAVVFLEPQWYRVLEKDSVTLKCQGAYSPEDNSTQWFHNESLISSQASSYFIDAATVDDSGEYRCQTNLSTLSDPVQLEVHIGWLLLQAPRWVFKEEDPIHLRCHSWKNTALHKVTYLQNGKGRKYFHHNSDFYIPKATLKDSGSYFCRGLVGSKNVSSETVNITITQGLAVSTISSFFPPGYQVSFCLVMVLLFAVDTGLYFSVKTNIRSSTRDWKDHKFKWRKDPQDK

[2] = target: FcγR2A (CD32aR131) (human); assay: as above
FcγR2A (CD32aR131) (human), sequence (P12318 34-317 H167R): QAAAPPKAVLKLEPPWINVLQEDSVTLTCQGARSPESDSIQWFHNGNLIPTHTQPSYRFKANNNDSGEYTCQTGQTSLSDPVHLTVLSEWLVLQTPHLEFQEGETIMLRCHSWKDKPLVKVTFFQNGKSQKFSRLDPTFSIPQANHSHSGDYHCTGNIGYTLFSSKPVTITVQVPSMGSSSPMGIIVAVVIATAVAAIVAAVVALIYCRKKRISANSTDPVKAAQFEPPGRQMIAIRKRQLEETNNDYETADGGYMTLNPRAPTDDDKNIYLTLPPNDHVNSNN

[3] = target: SIRPα variant 3 Fc (haplotype v3 DLE) (human) (UniProt P78324); assay: BLI; Octet, under affinity conditions; SIRPα variants 1-6 Fc captured on anti-human capture tips, dipped into 50 nmol/L BMS-986351-Fab; association 180 s, dissociation 180 s; 2 x 10^-4 is the limit of koff that can be confidently assigned
SIRPα variant 3 Fc (haplotype v3 DLE) (human), sequence (P78324 other isoform, or with tags, fused parts or gaps, change not shown): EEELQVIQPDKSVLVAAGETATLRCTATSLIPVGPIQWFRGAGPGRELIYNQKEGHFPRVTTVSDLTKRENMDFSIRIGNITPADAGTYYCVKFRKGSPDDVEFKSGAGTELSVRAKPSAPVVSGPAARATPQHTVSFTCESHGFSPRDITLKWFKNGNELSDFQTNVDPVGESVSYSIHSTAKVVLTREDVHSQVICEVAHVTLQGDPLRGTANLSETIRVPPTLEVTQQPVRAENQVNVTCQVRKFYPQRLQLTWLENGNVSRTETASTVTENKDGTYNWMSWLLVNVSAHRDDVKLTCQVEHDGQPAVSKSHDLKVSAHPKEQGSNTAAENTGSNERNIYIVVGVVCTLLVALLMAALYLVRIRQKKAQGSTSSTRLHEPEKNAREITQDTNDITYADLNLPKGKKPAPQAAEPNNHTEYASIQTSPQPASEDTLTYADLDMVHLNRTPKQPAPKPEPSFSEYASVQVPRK

[4] = target: SIRPα variant 5 Fc (haplotype v5 EPN) (human) (UniProt P78324); assay: as above
SIRPα variant 5 Fc (haplotype v5 EPN) (human), sequence (P78324 other isoform, or with tags, fused parts or gaps, change not shown): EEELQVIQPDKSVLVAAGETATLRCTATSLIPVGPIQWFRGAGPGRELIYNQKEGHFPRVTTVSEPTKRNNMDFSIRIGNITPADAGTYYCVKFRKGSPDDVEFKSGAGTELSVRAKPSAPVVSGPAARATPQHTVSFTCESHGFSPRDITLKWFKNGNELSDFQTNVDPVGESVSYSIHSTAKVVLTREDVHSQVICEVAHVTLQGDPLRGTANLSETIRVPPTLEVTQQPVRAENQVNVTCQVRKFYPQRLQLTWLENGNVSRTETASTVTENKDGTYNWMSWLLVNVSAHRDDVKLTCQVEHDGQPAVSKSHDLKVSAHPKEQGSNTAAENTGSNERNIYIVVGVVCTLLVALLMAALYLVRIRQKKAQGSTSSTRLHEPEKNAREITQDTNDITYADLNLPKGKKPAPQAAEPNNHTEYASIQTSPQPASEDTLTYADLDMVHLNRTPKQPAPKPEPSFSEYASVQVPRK

[5] = target: SIRPα variant 4 Fc (haplotype v4 ESK) (human) (UniProt P78324); assay: as above
SIRPα variant 4 Fc (haplotype v4 ESK) (human), sequence (P78324 other isoform, or with tags, fused parts or gaps, change not shown): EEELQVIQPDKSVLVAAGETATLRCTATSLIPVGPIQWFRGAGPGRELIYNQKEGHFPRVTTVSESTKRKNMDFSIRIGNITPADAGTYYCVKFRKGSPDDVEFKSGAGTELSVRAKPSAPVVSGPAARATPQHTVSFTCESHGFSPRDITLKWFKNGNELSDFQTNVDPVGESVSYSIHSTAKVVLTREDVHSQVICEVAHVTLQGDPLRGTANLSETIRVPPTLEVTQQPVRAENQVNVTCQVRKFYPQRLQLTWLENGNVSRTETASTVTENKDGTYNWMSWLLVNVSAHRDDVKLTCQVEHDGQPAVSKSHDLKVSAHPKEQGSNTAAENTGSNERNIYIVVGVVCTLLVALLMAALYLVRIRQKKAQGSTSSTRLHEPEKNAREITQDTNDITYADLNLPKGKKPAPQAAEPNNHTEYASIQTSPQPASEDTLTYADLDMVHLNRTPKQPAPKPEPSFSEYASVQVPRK

[6] = target: SIRPα variant 6 Fc (haplotype v6 ELE) (human) (UniProt P78324); assay: as above
SIRPα variant 6 Fc (haplotype v6 ELE) (human), sequence (P78324 other isoform, or with tags, fused parts or gaps, change not shown): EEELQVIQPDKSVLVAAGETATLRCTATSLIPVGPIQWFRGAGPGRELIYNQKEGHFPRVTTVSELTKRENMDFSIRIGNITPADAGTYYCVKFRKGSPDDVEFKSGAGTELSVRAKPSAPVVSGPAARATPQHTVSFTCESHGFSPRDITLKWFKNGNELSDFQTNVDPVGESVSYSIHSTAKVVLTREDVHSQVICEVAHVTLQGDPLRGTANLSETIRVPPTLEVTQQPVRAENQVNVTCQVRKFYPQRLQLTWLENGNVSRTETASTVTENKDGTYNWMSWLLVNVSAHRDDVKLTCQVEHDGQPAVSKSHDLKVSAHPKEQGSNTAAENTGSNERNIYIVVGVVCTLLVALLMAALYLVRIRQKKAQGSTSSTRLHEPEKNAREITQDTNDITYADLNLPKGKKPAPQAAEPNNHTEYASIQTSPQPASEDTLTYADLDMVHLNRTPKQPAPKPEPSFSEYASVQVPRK

Binder	EC50 [1] [nM]	EC50 [2] [nM]	Kd [3] [nM]	koff [3] [s⁻¹]	kon [3] [M⁻¹ s⁻¹]	Kd [4] [nM]	koff [4] [s⁻¹]	kon [4] [M⁻¹ s⁻¹]	Kd [5] [nM]	koff [5] [s⁻¹]	kon [5] [M⁻¹ s⁻¹]	Kd [6] [nM]	koff [6] [s⁻¹]	kon [6] [M⁻¹ s⁻¹]
B1	795	188												
B2			< 0.145	< 0.0002	1.38e+06	0.611	0.00106	1.73e+06	1.52	0.00228	1.5e+06	0.183	0.000356	1.94e+06
